Experiment: soluble on expression in E. coli; label from the status in PepcDB or PDB records

Question: Which “soluble on expression in E. coli” value does the source give for “MTAAQGNSNETLFSSYKMGRFDLSHRVVLAPMTRCRALNGVPNAALAEYYAQRTTPGGFLISEGTMVSPGSAGFPHVPGIYSDEQVEAWKQVVEAVHAKGGFIFCQLWHVGRASHAVYQPNGGSPISSTNKPISENRWRVLLPDGSHVKYPKPRALEASEIPRVVEDYCLSALNAIRAGFDGIEIHGAHGYLIDQFLKDGINDRTDQYGGSIANRCRFLKQVVEGVVSAIGASKVGVRVSPAIDHLDATDSDPLSLGLAVVGMLNKLQGVNGSKLAYLHVTQPRYHAYGQTESGRQGSDEEEAKLMKSLRMAYNGTFMSSGGFNKELGMQAVQQGDADLVSYGRLFIANPDLVSRFKIDGELNKYNRKTFYTQDPVVGYTDYPFLAPFSRL” here?
Answer: The value was “soluble”.

Question: For “MTADDSPSDRWGPRCTTRGPGSDPRFDVPVRGVDVGPETRCAHYHGPRDVIAIRFACCDVFYPCHRCHEETATHPPERWPHDQFNASAVLCGRCRTVLTIEQYLDADHTCPACGAAFNPNCARHHDRYFCVGLEHHHHHH”, which “soluble on expression in E. coli” value is on record?
Answer: The value was “not soluble”.

Question: Which “soluble on expression in E. coli” value does the source give for “MTAELLVNVTPSETRVAYIDGGILQEIHIEREARRGIVGNIYKGRVSRVLPGMQAAFVDIGLDKAAFLHASDIMPHTECVAGEEQKQFTVRDISELVRQGQDLMVQVVKDPLGTKGARLTTDITLPSRYLVFMPGASHVGVSQRIESESERERLKKVVAEYCDEQGGFIIRTAAEGVGEAELASDAAYLKRVWTKVMERKKRPQTRYQLYGELALAQRVLRDFADAELDRIRVDSRLTYEALLEFTSEYIPEMTSKLEHYTGRQPIFDLFDVENEIQRALERKVELKSGGYLIIDQTEAMTTVDINTGAFVGHRNLDDTIFNTNIEATQAIARQLRLRNLGGIIIIDFIDMNNEDHRRRVLHSLEQALSKDRVKTSVNGFSALGLVEMTRKRTRESIEHVLCNECPTCHGRGTVKTVETVCYEIMREIVRVHHAYDSDRFLVYASPAVAEALKGEESHSLAEVEIFVGKQVKVQIEPLYNQEQFDVVMM” here?
Answer: Its value is “soluble”.

Question: With “MTAIEQTEAVRPRGTRLPRRARRNQLLGAAQEVFVAQGYHAAAMDDIAERAGVSKPVLYQHFPGKLDLYLALLDQHCEALIQSVRSALASTSDNKQRVRATMDAYFAYVEDDGGAFRLVFESDLTNEPAVRERVDKVTNECAEAICDVIAEDTGLSRAESMLLASGLGGLAQVVARSWLHSDRSVPRDQAVQLLTSLAWRGIAGFPLHGIEQH” as the sequence, how does the “soluble on expression in E. coli” value read?
Answer: The value was “not soluble”.

Question: With “MTAQPVETIKIDSEAGELGFERLGVLIKEYKPEKVVLGLPKHMNGDEGIRAEASRDYGTKLANEFGLEVAYQDERLTTAQAEKVLIDGGVRRKERKKSIDKLAAVLILQNYLDAHALKL” as the sequence, how does the “soluble on expression in E. coli” value read?
Answer: The value was “not soluble”.

Question: With “MTARYIAIDWGSTNLRAWLYQGEECLESRQSEAGVTRLNGRSPAAVLAEITQHWRDGATPVVMAGMVGSNVGWKIAPYLPLPAAFSDIGQQLTAVGDNIWIIPGLCVSRDDNHNVMRGEETQLLGARALAPSSVYVMPGTHCKWVLADRRQIHDFRTVLTGELHHLLLQLSLVGAGLPPQETSAAAFAAGLQRGINNPAVLPQLFEVRASHVLGALPREQVSEFLSGLLIGAEVATLSDTFAGQQAISLVAGSSLTSRYQQAFAAIGREVSAVAGDTAFQTGIRSIAYAVAN” as the sequence, how does the “soluble on expression in E. coli” value read?
Answer: The value was “soluble”.

Question: Which “soluble on expression in E. coli” value does the source give for “MTCEVLITEFVAHPSDITDAYARYQQRIQDAPLHIVCSSPRPLPSKGSAYAQWSLRCESAYAQKSHPELMQCYELRSLVTYEETPDPDDSLIEKFFFEDCAEPTVYSASVNRLDIELGAVDTRCTDELCIVTPVFLAHSEHAEVLQSLYEVLVSNADPVAYAASIAECDDISQANLIGLLWVRDAQRTMSNVGDQIYAMGKTAWTGWILVEASKQEELQLQLSELIDATNAVAYLTATPW” here?
Answer: Its value is “soluble”.

Question: For “MTCVGDIMLAGSATPTLSRSGYDYPFAKTAQELRRGDIAMGNLEAPLTERGTEYRDKTYRFRTNPIAAAALKRAGFSVLTLANNHMMDYGNEGLQDTLATLSRHGIAHTGAGASLAEARREAVVSVRGKRIAFLAYSLTFPSEFYAGPNRPGTAPGYAPHVREDIRRAKAEADYVVVSFHWGAERAEFPKQYQTETARLAIDAGADAIIGHHPHVLQGIEFYRGKPILYSLGNFAFGSRSTAADRSVMARLTLSDEETSVELVPLNVLHRETRYQPGILAGRKGAEVIERLNRLSQPFGTVISGSAGRFRARTSGADQRIATRLEHHHHHH”, which “soluble on expression in E. coli” value is on record?
Answer: The value was “not soluble”.

Question: With “MTDAQSRDEKGIPASIYDGIFKNNRQIKPGNPNELKMVMGLKLKEVNKDCADAVLRVSKATLSWEIVREIMNATERLIQERVSDPTGQVAIAVDPPSSWSKSVTDFLASCYKLSPSPNFKFLELLAILTGKSQYLILQWFDTAEEEKREKNQKLETATFKRHCPWRKRHRLIQPLSNATAIPFLEAAFQKSSIPGSVELYDLQLKTNWFICELKAWFTARRVAEEIKGKLSELTGVQGVAKDQS” as the sequence, how does the “soluble on expression in E. coli” value read?
Answer: Its value is “not soluble”.

Question: With “MTDEKKDDRPVYQAACHCGTVRFELRLTDGLRTARRCNCSLCRMRGAVAVSANLGDITVTQGEEALTLYQFHTREAKHYFCSRCGIYTFHQRRSAPDQYGVNVACIEGMSPFDFADVPVSEGRVHPKDRVDGGVGVAGWLRYEGNPEWGQGLEHHHHHH” as the sequence, how does the “soluble on expression in E. coli” value read?
Answer: Its value is “soluble”.

Question: Which “soluble on expression in E. coli” value does the source give for “MTDGPIKVNSEIGALKTVLLKRPGKELENLVPDYLDGLLFDDIPYLEVAQKEHDHFAQVLREEGVEVLYLEKLAAESIENPQVRSEFIDDVLAESKKTILGHEEEIKTLFATLSNQELVDKIMSGVRKEEINPKCTHLVEYMDDKYPFYLDPMPNLYFTRDPQASIGHGITINRMFWRARRRESIFIQYIVKHHPRFKDANIPIWLDRDCPFNIEGGDELVLSKDVLAIGVSERTSAQAIEKLARRIFENPQATFKKVVAIEIPTSRTFMHLDTVFTMIDYDKFTMHSAILKAEGNMNIFIIEYDDVNKDIAIKQSSHLKDTLEDVLGIDDIQFIPTGNGDVIDGAREQWNDGSNTLCIRPGVVVTYDRNYVSNDLLRQKGIKVIEISGSELVRGRGGPRCMSQPLFREDI” here?
Answer: Its value is “not soluble”.

Question: Which “soluble on expression in E. coli” value does the source give for “MTDHTMKKNPVSIPHTVWYADDIRRGEREAADVLGLTLYELMLRAGEAAFQVCRSAYPDARHWLVLCGHGNNGGDGYVVARLAKAVGIEVTLLAQESDKPLPEEAALAREAWLNAGGEIHASNIVWPESVDLIVDALLGTGLRQAPRESISQLIDHANSHPAPIVAVDIPSGLLAETGATPGAVINADHTITFIALKPGLLTGKARDVTGQLHFDSLGLDSWLAGQETKIQRFSAEQLSHWLKPRRPTSHKGDHGRLVIIGGDHGTAGAIRMTGEAALRAGAGLVRVLTRSENIAPLLTARPELMVHELTMDSLTESLEWADVVVIGPGLGQQEWGKKALQKVENFRKPMLWDADALNLLAINPDKRHNRVITPHPGEAARLLGCSVAEIESDRLHCAKRLVQRYGGVAVLKGAGTVVAAHPDALGIIDAGNAGMASGGMGDVLSGIIGALLGQKLSPYDAACAGCVAHGAAADVLAARFGTRGMLATDLFSTLQRIVNPEVTDKNHDESSNSAP” here?
Answer: Its value is “soluble”.

Question: Which “soluble on expression in E. coli” value does the source give for “MTDIETIYKKLSHVISKEDFLQRIQEKVENMGGLCDETMAAMLVANELGFSDAGRDSIKIENITPESGPVNFIARIISVFDTKEFTRNDGTIGRVGNLIVGDETGKVKLTLWDNMADLIKMGKIKAGQSVQVSGFAKQGYSGVEVNIGNNGVLTESEEEIDVVSNSYKIKDIKDGMGDINLNGKVLEVSEIRTFQRKDGNSGRVGNLMLGDETGTLRVTLWDDKTDFLSQVEYGDSIELINAYARENAFSQKVELQVGNRSIIRKSEKKIEYEEEFTPIDDIKADMNNINISGRILDISEVRTFEKKDGSTGRVGNVLLGDSTGKIRLTLWDEKTDILEEIDFDETVEVLNAYSRENTFSQQVELNLGARGIIQRSEKKVEYREKFTDIADIIPGESYSIQGKVAEIGELREFEKEDGTENVVANLQLKDDTGSIRLTLWGEQAYVIEDLDIDSEIQIIDAYARYGLNEEIELSVGNRSRVIILLEHHHHHH” here?
Answer: Its value is “soluble”.

Question: For “MTDLTGILYIVATPIGNLQDITQRALETFAQVDLIAAEDTRHSGLLLSHYGIKKPFFALHDHNEQEKAHILVEKLKQGSNIALISDAGTPLISDPGFHLVRQCREAGIRVVPLPGACAAITALCASGIASDRFCFEGFLPAKSKARKDKLENIAEEDRTLIFYESTHRILDTLEDMQAVLGEERYIVLAREMTKTWETITGNTIKNLREWLLEDPNRTKGEMVLIVEGKPKSDNNDEISPQAVKALELIAEELPLKKAAAIVAELYGYKKNALYQFGLAHLEK”, which “soluble on expression in E. coli” value is on record?
Answer: Its value is “not soluble”.

Question: With “MTDNTRLRIAMQKSGRLSDDSRELLARCGIKINLHTQRLIAMAENMPIDILRVRDDDIPGLVMDGVVDLGIIGENVLEEELLNRRAQGEDPRYFTLRRLDFGGCRLSLATPVDEAWDGPLSLNGKRIATSYPHLLKRYLDQKGISFKSCLLNGSVEVAPRAGLADAICDLVSTGATLEANGLREVEVIYRSKACLIQRDGEMEESKQQLIDKLLTRIQGVIQARESKYIMMHAPTERLDEVIALLPGAERPTILPLAGDQQRVAMHMVSSETLFWETMEKLKALGASSILVLPIEKMME” as the sequence, how does the “soluble on expression in E. coli” value read?
Answer: The value was “soluble”.

Question: For “MTDRKIRQISALLIEVYNGIMQVEDKYLRTTQFRDITVKEVHTIDAITMYDYKTTTAVARQLRLSPGTVTASIDKLVRKGYVVRLQSKDDQRVIRLGLTRRGRLIYRAHQSFHRQMTESFLNGMDPEQVDIIEHSLLNLQTFLQIADEKGDSNEND”, which “soluble on expression in E. coli” value is on record?
Answer: Its value is “not soluble”.

Question: Which “soluble on expression in E. coli” value does the source give for “MTDSDNPRRVLLKLSGEAFGGGKVGIDTQVIRRIAEEIVPAVQQGVQVAIVVGGGNFFRGAELQQAGIDRSRGDYMGMLGTVMNCLALQDFLEQEGQATRVQTAITMGQVAEPYIPLKAIRHLEKGRVVIFGAGAGMPYFSTDTVSIQRSLEIHCDEVLMGKNGVDGVYTADPRKDENAKRFETLSYNRALVDNLAVMDASALSMARDNKKRIRVFGLEEPGNVTRALVGDEIGTLVSTAESRVAELEHHHHHH” here?
Answer: The value was “soluble”.

Question: Which “soluble on expression in E. coli” value does the source give for “MTDTRKFKATDLFSFNNINLDPLTETFNISFYLSYLNKWPSLCVVQESDLSDPTLMGYIMGKSEGTGKEWHTHVTAITVAPNSRRLGLARTMMDYLETVGNSENAFFVDLFVRASNALAIDFYKGLGYSVYRRVIGYYSNPHGKDEDSFDMRKPLSRDVNRESIRENGENFKCSPADVSF” here?
Answer: The value was “soluble”.

Question: With “MTDVEQPVSVEDQQAQAQSYYDQVLGNAYVQTAINAYTKTKEFHPLLNSTLNSAEEKVSTVGNYAAQKAYDGYNSYYVKPKNTAYEAVSYGTERAKTAVESGKQAAIVGGTFGIGAAVVLTQFSLALSAGGAALVLEQVDSAKKLGSSAISTIKEAELAVEHRIFSALHQAQRIAMVPVEKITENTNSLLDILDGAVQKGLNIEVPPSVNLTIGQRVKNLASLIVQGVSNKAHDHVIDPINERARNYLEQLSQSFVLLDIVREKKTWVIEKSNELSTSVFDFKKTLEEEAQKYKVAPEEMLMKHIQSTSEQLSTQLQSLREKGQNVFGDGTKIDSTIDYLENLKKNFTDAEDVYKVRDEVLNEGRQRIAELSTWTTSLLIISAEWQFEPEDLLIEELYFDAPPPVRTRNLYRNRA” as the sequence, how does the “soluble on expression in E. coli” value read?
Answer: Its value is “not soluble”.

Question: With “MTEAGASIVVTVKNEGKNLRELLESIEKNDFTNFETVVVDDLSTDDTEDIVKSYRFTVYKRIACSRGEGRNIGVDLSRYGYILFTDGDAKVSEHWISGMVSALAAGNDAVIGNTLYTGKRRYMQERVKIFLEGIEVTAPSVNLAYRKDRFRQLGGFDPKFVTAEDIDLNIRAVKAGFRFATCDSCVVYAKVRENLASFLRQAYWNGYGRYQLEMKHPGITRNTRVRLGHNFFDFLHMVSGAAGYLSARISEGKQGRLEHHHHHH” as the sequence, how does the “soluble on expression in E. coli” value read?
Answer: The value was “soluble”.
